In assay [1] the target is Ag43b α-domain (α^43b) from UPEC CFT073 (E. coli CFT073 (UPEC)). Nature of the assay: AUC; sedimentation velocity; α^43b sample concentrated above 30 mg/ml prior to AUC analysis (Supplementary Fig. 7); monomer to dimer.
The target of assay [2] is Ag43^EDL933 α-domain (α^43_EDL933), complete passenger domain with the autochaperone domain, from EHEC O157:H7 EDL933 (E. coli O157:H7 EDL933 (EHEC)). In words: AUC; sedimentation velocity, 2.2 mg/mL, 25 mM HEPES, 150 mM NaCl, pH 7.0, 20 °C, 40,000 rpm, absorbance at 285 nm, c(s) analysis; monomer to dimer.
Assay [3] addresses Ag43^UTI89 α-domain (α^43_UTI89), complete passenger domain with the autochaperone domain, from UPEC UTI89 (E. coli UTI89 (UPEC)). The assay is described as above.
Assay [4] concerns the target Ag43a α-domain (α^43a) from UPEC CFT073 (E. coli CFT073 (UPEC)). The assay is described as above.

The stoichiometry N is the number of molecules, sites or subunits per partner or assembly.

On to “Ag43b α-domain (α^43b) from UPEC CFT073 (domain or fragment)”, for which the stoichiometry N in assay [1] stood at 2.

In assay [2], “Ag43^EDL933 α-domain (α^43_EDL933), complete passenger domain with the autochaperone domain, from EHEC O157:H7 EDL933 (domain or fragment)” registered a stoichiometry N of 2.

“Ag43^UTI89 α-domain (α^43_UTI89), complete passenger domain with the autochaperone domain, from UPEC UTI89 (domain or fragment)”: the stoichiometry N in assay [3] is 2.

Regarding “Ag43a α-domain (α^43a) from UPEC CFT073 (domain or fragment)”, in assay [4], the stoichiometry N was 2.
